US20230233650A1, “NOVEL FATTY ACID MODIFIED UROCORTIN 2 DERIVATIVES AND THE USES THEREOF” (Novo Nordisk A/S, priority 2021, published 2023)
Numbered stars: 1 amine (or outer) side, 2 acyl side, 3 side chain; on linkers, the order of the positions; unused ones are H or OH. Side chains are listed from the residue outwards. Ends that are not written are not given here. * marks the point of attachment. C20 diacid = O=C(O)CCCCCCCCCCCCCCCCCCC(=O)*; γGlu = O=C(O)[C@H](CCC(=O)[*:2])N[*:1]; AEEA = NCCOCCOCC(=O)O

B1: Compound 3: N{epsilon}-[C20 diacid-3xgGlu-2xAdo]Lys-[Glu33,Glu37]-hUcn2 (peptide)
peptide: K([AEEA-AEEA-γGlu-γGlu-γGlu-C20 diacid])IVLSLDVPIGLLQILLEQARARAAREQATTNAEILAEV-NH2
modifications: N-terminus assumed
SMILES: CC[C@H](C)[C@H](NC(=O)[C@H](CCC(=O)O)NC(=O)[C@H](C)NC(=O)[C@H](CC(N)=O)NC(=O)[C@@H](NC(=O)[C@@H](NC(=O)[C@H](C)NC(=O)[C@H](CCC(N)=O)NC(=O)[C@H](CCC(=O)O)NC(=O)[C@H](CCCNC(=N)N)NC(=O)[C@H](C)NC(=O)[C@H](C)NC(=O)[C@H](CCCNC(=N)N)NC(=O)[C@H](C)NC(=O)[C@H](CCCNC(=N)N)NC(=O)[C@H](C)NC(=O)[C@H](CCC(N)=O)NC(=O)[C@H](CCC(=O)O)NC(=O)[C@H](CC(C)C)NC(=O)[C@H](CC(C)C)NC(=O)[C@@H](NC(=O)[C@H](CCC(N)=O)NC(=O)[C@H](CC(C)C)NC(=O)[C@H](CC(C)C)NC(=O)CNC(=O)[C@@H](NC(=O)[C@@H]1CCCN1C(=O)[C@@H](NC(=O)[C@H](CC(=O)O)NC(=O)[C@H](CC(C)C)NC(=O)[C@H](CO)NC(=O)[C@H](CC(C)C)NC(=O)[C@@H](NC(=O)[C@@H](NC(=O)[C@@H](N)CCCCNC(=O)COCCOCCNC(=O)COCCOCCNC(=O)CC[C@H](NC(=O)CC[C@H](NC(=O)CC[C@H](NC(=O)CCCCCCCCCCCCCCCCCCC(=O)O)C(=O)O)C(=O)O)C(=O)O)[C@@H](C)CC)C(C)C)C(C)C)[C@@H](C)CC)[C@@H](C)CC)[C@@H](C)O)[C@@H](C)O)C(=O)N[C@@H](CC(C)C)C(=O)N[C@@H](C)C(=O)N[C@@H](CCC(=O)O)C(=O)N[C@H](C(N)=O)C(C)C
B2: Compound 4: N{epsilon}-[C20 diacid-3xgGlu-2xAdo]Lys-[Glu33,Glu36]-hUcn2 (peptide)
peptide: K([AEEA-AEEA-γGlu-γGlu-γGlu-C20 diacid])IVLSLDVPIGLLQILLEQARARAAREQATTNAEILERV-NH2
modifications: N-terminus assumed
SMILES: CC[C@H](C)[C@H](NC(=O)[C@H](CCC(=O)O)NC(=O)[C@H](C)NC(=O)[C@H](CC(N)=O)NC(=O)[C@@H](NC(=O)[C@@H](NC(=O)[C@H](C)NC(=O)[C@H](CCC(N)=O)NC(=O)[C@H](CCC(=O)O)NC(=O)[C@H](CCCNC(=N)N)NC(=O)[C@H](C)NC(=O)[C@H](C)NC(=O)[C@H](CCCNC(=N)N)NC(=O)[C@H](C)NC(=O)[C@H](CCCNC(=N)N)NC(=O)[C@H](C)NC(=O)[C@H](CCC(N)=O)NC(=O)[C@H](CCC(=O)O)NC(=O)[C@H](CC(C)C)NC(=O)[C@H](CC(C)C)NC(=O)[C@@H](NC(=O)[C@H](CCC(N)=O)NC(=O)[C@H](CC(C)C)NC(=O)[C@H](CC(C)C)NC(=O)CNC(=O)[C@@H](NC(=O)[C@@H]1CCCN1C(=O)[C@@H](NC(=O)[C@H](CC(=O)O)NC(=O)[C@H](CC(C)C)NC(=O)[C@H](CO)NC(=O)[C@H](CC(C)C)NC(=O)[C@@H](NC(=O)[C@@H](NC(=O)[C@@H](N)CCCCNC(=O)COCCOCCNC(=O)COCCOCCNC(=O)CC[C@H](NC(=O)CC[C@H](NC(=O)CC[C@H](NC(=O)CCCCCCCCCCCCCCCCCCC(=O)O)C(=O)O)C(=O)O)C(=O)O)[C@@H](C)CC)C(C)C)C(C)C)[C@@H](C)CC)[C@@H](C)CC)[C@@H](C)O)[C@@H](C)O)C(=O)N[C@@H](CC(C)C)C(=O)N[C@@H](CCC(=O)O)C(=O)N[C@@H](CCCNC(=N)N)C(=O)N[C@H](C(N)=O)C(C)C

Tests used:
[1] = target: T1, Pro-Link-tagged human CRF1 receptor (human, UniProt P34998 24-415); test: cell-based or functional assay
T1 sequence (looked up): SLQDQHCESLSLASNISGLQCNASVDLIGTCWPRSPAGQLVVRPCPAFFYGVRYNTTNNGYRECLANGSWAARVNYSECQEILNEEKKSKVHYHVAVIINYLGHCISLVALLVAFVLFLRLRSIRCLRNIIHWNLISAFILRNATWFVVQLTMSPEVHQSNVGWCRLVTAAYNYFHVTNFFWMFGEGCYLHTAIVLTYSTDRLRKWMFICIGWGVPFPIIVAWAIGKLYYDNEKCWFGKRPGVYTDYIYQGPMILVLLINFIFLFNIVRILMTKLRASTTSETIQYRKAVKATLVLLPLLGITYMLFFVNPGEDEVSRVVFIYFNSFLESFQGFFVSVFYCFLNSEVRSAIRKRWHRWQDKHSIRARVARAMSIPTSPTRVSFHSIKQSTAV

[2] = target: T2, Human CRF2 receptor (Corticotropin-Releasing Factor receptor 2) (human) (UniProt Q13324); test: SPA, displacement of [125I]-Sauvagine from membranes of CHO-K1 cells expressing the CRF2 receptor
T2 sequence (looked up): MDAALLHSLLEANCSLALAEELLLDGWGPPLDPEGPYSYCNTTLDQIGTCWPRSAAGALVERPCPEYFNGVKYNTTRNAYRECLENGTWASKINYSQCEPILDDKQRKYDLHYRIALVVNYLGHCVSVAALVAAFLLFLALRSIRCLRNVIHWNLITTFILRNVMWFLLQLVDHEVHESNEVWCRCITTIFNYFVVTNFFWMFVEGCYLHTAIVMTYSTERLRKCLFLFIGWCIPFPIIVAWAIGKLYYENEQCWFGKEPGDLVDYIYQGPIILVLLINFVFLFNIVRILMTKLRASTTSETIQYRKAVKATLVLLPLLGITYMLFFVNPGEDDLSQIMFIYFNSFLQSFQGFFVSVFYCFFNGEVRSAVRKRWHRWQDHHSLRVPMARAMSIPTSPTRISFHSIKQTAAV

[3] = target: T3, Human CRF1 receptor (Corticotropin-Releasing Factor receptor 1) (human), P34998; test: SPA, displacement of [125I]-Sauvagine from membranes of CHO-K1 cells expressing the CRF1 receptor; details: remark: other sources report otherwise
T3 chain: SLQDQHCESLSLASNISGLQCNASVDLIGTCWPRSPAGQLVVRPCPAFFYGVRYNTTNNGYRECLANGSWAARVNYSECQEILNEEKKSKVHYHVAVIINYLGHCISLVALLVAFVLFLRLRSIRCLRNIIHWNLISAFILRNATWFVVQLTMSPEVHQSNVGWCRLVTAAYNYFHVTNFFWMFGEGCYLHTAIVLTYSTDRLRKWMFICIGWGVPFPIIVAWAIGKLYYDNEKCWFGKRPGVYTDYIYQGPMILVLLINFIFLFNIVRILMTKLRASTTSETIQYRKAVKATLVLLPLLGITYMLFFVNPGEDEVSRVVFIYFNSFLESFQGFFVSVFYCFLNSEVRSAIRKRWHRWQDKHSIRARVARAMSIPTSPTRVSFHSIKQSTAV

[4] = target: T4, Pro-Link-tagged human CRF2 receptor (human, UniProt Q13324 20-411); test: cell-based or functional assay
T4 sequence (looked up): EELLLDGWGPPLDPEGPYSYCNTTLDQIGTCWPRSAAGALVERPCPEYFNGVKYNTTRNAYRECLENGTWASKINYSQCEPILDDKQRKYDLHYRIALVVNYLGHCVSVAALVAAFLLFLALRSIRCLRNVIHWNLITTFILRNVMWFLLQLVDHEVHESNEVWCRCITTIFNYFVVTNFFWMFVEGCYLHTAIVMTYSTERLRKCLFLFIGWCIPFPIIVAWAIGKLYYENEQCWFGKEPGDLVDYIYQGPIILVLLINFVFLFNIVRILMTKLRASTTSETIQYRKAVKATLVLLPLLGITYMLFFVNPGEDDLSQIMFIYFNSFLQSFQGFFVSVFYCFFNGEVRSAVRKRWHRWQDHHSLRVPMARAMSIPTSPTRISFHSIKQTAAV

[5] = target: T5, Human CRF1 receptor (Corticotropin-Releasing Factor receptor 1) (human, UniProt P34998 24-415); test: SPA, displacement of [125I]-Sauvagine from membranes of CHO-K1 cells expressing the CRF1 receptor
T5 construct: whole, on cells; also called type 1 CRF receptor
T5 sequence (looked up): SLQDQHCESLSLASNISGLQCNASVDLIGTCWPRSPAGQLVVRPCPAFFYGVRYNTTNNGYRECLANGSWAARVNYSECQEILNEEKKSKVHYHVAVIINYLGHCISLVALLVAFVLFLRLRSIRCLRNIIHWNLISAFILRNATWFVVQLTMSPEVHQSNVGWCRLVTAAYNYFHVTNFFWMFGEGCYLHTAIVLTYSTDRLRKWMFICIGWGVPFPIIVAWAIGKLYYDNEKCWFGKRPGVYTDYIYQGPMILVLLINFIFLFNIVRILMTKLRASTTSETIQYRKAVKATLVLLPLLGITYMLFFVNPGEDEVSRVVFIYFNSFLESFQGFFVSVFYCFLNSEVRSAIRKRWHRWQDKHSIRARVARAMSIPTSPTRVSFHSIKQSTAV
Experimental: Scintillation Proximity Assay: CHO-K1 cells expressing either the CRF₁ receptor or the CRF₂ receptor were obtained from DiscoveRx. Both cell lines were cultured at 37° C. in a humidified atmosphere with 5% CO₂. The culture media used was Ham’s F-12 Nutrient Mix with Glutamax (Gibco) containing 10% fetal bovine serum, 1% Pen/Strep, 800 µg/ml G418 and 300 µg/ml Hygromycin B. Membranes were prepared by the following protocol: cultured cells were washed twice with cold Dulbecco’s phosphate buffered saline and detached using TrypLE™ (ThermoFisher) and transferred to tubes and centrifuged for 5 minutes at 1000 g at +4° C. Pellets were resuspended in ice cold homogenization buffer (20 mM Hepes pH 7.1, 5 mM MgCl₂, 1 mg/ml Bacitracin with 2 complete EDTA-free protease inhibitor cocktail tablets/50 ml (Roche)) and then homogenized for 30 seconds using a Ultra-Turrax T25 tissue homogenizer (IKA) at medium speed. The homogenate was centrifuged at 35,000 g for 15 minutes at +4° C. using an ultracentrifuge, and the supernatant was discarded, and fresh homogenization buffer was added. Homogenization of the pellet was repeated a total of three times. The final pellet was resuspended in a few millilitres of homogenization buffer and protein concentration was determined using the Bradford method. The membrane preparation was transferred to cryotubes, and the aliquots were stored at -80° C. […]

Row | Binder | Human CRF1 receptor EC50 [nM] (beta-arrestin recruitment, PathHunter) [1] | IC50 [2] | IC50 [3] | Human CRF2 receptor EC50 [nM] (beta-arrestin recruitment, PathHunter) [4] | IC50 [5]
1 | IVLSLDVPIGLLQILLEQARARAAREQATTNARILARV-NH2 [Compound 2 - hUcn2 (human Urocortin 2 peptide)] | > 10000 nM | 0.58 nM | 447 nM |  | 
2 | B1 | > 10000 nM |  |  | 55 nM | 
3 | B2 | > 10000 nM |  |  | 42 nM | 
4 | DNPSLSIDLTFHLLRTLLELARTQSQRERAEQNRIIFDSV-NH2 (also called human Ucn1) [Compound 1 - hUcn1 (human Urocortin 1 peptide)] | 22 nM |  |  | 31 nM | 0.07 nM
